# Test results as given in patent EP0251446B1, “Non-human Carbonyl hydrolase mutants, DNA sequences and vectors encoding same and hosts transformed with said vectors” (GENENCOR INTERNATIONAL, INC., priority 1986, dated 1988).
# Columns and labels:
# Format in all cases: biochemical, B. amyloliquefaciens
# [1] = substrate: C[C@H](NC(=O)[C@@H]1CCCN1C(=O)[C@H](C)NC(=O)[C@H](Cc1ccccc1)NC(=O)CCC(=O)O)C(=O)Nc1ccc([N+](=O)[O-])cc1; assay: Kinetics of hydrolysis of succinyl-Ala-Ala-Pro-X-p-nitroanilide substrates (progress curve analysis); details: other: Table XI, WT
# Excerpt: (§1) A change in substrate specificity is defined as a difference between the kcat/Km ratio of the precursor carbonyl hydrolase and that of the hydrolase mutant. The kcat/Km ratio is a measure of catalytic efficienty. Carbonyl hydrolase mutants with increased or diminished kcat/Km ratios are described in the examples. Generally, the objective will be to secure a mutant having a greater (numerically large) kcat/Km ratio for a given substrate, thereby enabling the use of the enzyme to more efficiently act on a target substrate. A substantial change in kcat/Km ratio is preferably at least 2-fold increase or decrease. However, smaller increases or decreases in the ratio (e.g., at least 1.5-fold) are also considered substantial. An increase in kcat/Km ratio for one substrate may be accompanied by a reduction in kcat/Km ratio for another substrate. […] Km and kcat are measured in accord with known procedures, as described in EPO Publication No. 0130756 or as described herein.
# (§2) Wild-type subtilisin was purified from B. subtilis culture supernatants expressing the B. amyloliquefaciens subtilisin gene (Wells, J.A., et al. (1983) Nucleic Acids Res. 11, 7911-7925) as previously described (Estell, D.A., et al. (1985) J. Biol. Chem. 260, 6518-6521). Details of the synthesis of tetrapeptide substrates having the form succinyl-L-AlaL-AlaL-ProL-[X]-p-nitroanilide (where X is the P1 amino acid) are described by DelMar, E.G., et al. (1979) Anal. Biochem. 99, 316-320. Kinetic parameters, Km(M) and kcat-(s-^1) were measured using a modified progress curve analysis (Estell, D.A., et al. (1985) J. Biol. Chem. 260, 6518-6521). Briefly, plots of rate versus product concentration were fit to the differential form of the rate equation using a non-linear regression algorithm. Errors in kcat and Km for all values reported are less than five percent. The various substrates in Table VIII are ranged in order of decreasing hydrophobicity. Nozaki, Y. (1971), J. Biol. Chem. 246, 2211-2217; Tanford C. (1978) Science 200, 1012).
# [2] = substrate: C[C@H](NC(=O)CCC(=O)O)C(=O)N[C@@H](C)C(=O)N1CCC[C@H]1C(=O)N[C@@H](CCCCN)C(=O)Nc1ccc([N+](=O)[O-])cc1; assay: as above; details: other: Table XIV, 156 Glu / 166 Gly(wt); value in parentheses; synthetic substrate with label as P-1 amino acid
# Excerpt: as §1, §2
# [3] = substrate: C[C@H](NC(=O)CCC(=O)O)C(=O)N[C@@H](C)C(=O)N1CCC[C@H]1C(=O)N[C@@H](C)C(=O)Nc1ccc([N+](=O)[O-])cc1; assay: as above
# Excerpt: as §1, §2
# [4] = substrate: C[C@H](NC(=O)CCC(=O)O)C(=O)N[C@@H](C)C(=O)N1CCC[C@H]1C(=O)N[C@@H](CCC(=O)O)C(=O)Nc1ccc([N+](=O)[O-])cc1; assay: as above
# Excerpt: as §1, §2
# [5] = substrate: C[C@H](NC(=O)CCC(=O)O)C(=O)N[C@@H](C)C(=O)N1CCC[C@H]1C(=O)N[C@@H](CO)C(=O)Nc1ccc([N+](=O)[O-])cc1; assay: as above; details: other: Table VIII; substrate succinyl-L-AlaL-AlaL-ProL-[X]-p-nitroanilide, X = label (P1 amino acid)
# Excerpt: as §1, §2
# [6] = substrate: C[C@H](NC(=O)CCC(=O)O)C(=O)N[C@@H](C)C(=O)N1CCC[C@H]1C(=O)N[C@@H](Cc1ccccc1)C(=O)Nc1ccc([N+](=O)[O-])cc1; assay: as above; details: other: Table V; substrate not given; Km in M
# Excerpt: as §1, §2
# [7] = substrate: CSCC[C@H](NC(=O)[C@@H]1CCCN1C(=O)[C@H](C)NC(=O)[C@H](C)NC(=O)CCC(=O)O)C(=O)Nc1ccc([N+](=O)[O-])cc1; assay: as above; details: other: Table XIV, 156 Glu / 166 Gly(wt); value in parentheses; synthetic substrate with label as P-1 amino acid
# Excerpt: as §1, §2
# [8] = substrate: C[C@H](NC(=O)CCC(=O)O)C(=O)N[C@@H](C)C(=O)N1CCC[C@H]1C(=O)NCC(=O)Nc1ccc([N+](=O)[O-])cc1; assay: as above; details: other: Table VIII; substrate succinyl-L-AlaL-AlaL-ProL-[X]-p-nitroanilide, X = label (P1 amino acid)
# Excerpt: as §1, §2
# [9] = substrate: C[C@H](NC(=O)CCC(=O)O)C(=O)N[C@@H](C)C(=O)N1CCC[C@H]1C(=O)N[C@@H](Cc1c[nH]cn1)C(=O)Nc1ccc([N+](=O)[O-])cc1; assay: as above; details: other: Table VIII; substrate succinyl-L-AlaL-AlaL-ProL-[X]-p-nitroanilide, X = label (P1 amino acid)
# Excerpt: as §1, §2
# [10] = substrate: CC(C)C[C@H](NC(=O)[C@@H]1CCCN1C(=O)[C@H](C)NC(=O)[C@H](C)NC(=O)CCC(=O)O)C(=O)Nc1ccc([N+](=O)[O-])cc1; assay: as above; details: other: Table VIII; substrate succinyl-L-AlaL-AlaL-ProL-[X]-p-nitroanilide, X = label (P1 amino acid)
# Excerpt: as §1, §2
# [11] = substrate: C[C@H](NC(=O)CCC(=O)O)C(=O)N[C@@H](C)C(=O)N1CCC[C@H]1C(=O)N[C@@H](CCC(N)=O)C(=O)Nc1ccc([N+](=O)[O-])cc1; assay: as above; details: other: Table XIV, 156 Glu / 166 Gly(wt); value in parentheses; synthetic substrate with label as P-1 amino acid
# Excerpt: as §1, §2
# [12] = substrate: C[C@H](NC(=O)CCC(=O)O)C(=O)N[C@@H](C)C(=O)N1CCC[C@H]1C(=O)N[C@@H](Cc1ccc(O)cc1)C(=O)Nc1ccc([N+](=O)[O-])cc1; assay: as above; details: other: Table VIII; substrate succinyl-L-AlaL-AlaL-ProL-[X]-p-nitroanilide, X = label (P1 amino acid)
# Excerpt: as §1, §2
# [13] = substrate: C[C@H](NC(=O)[C@H](Cc1ccccc1)NC(=O)CCC(=O)O)C(=O)N1CCC[C@H]1C(=O)N[C@@H](Cc1ccccc1)C(=O)Nc1ccc([N+](=O)[O-])cc1; assay: as above; details: other: Table XI, WT
# Excerpt: as §1, §2
# [14] = substrate: C[C@H](NC(=O)CCC(=O)O)C(=O)N[C@@H](C)C(=O)N1CCC[C@H]1C(=O)N[C@@H](CCCCN)C(=O)Nc1ccc([N+](=O)[O-])cc1; assay: Kinetics of p-nitroanilide substrate hydrolysis, M166; details: other: Table XIV, 156 Glu / 166 Met; value in parentheses; synthetic substrate with label as P-1 amino acid
# Excerpt: as §2
# (§3) To probe the change in substrate specificity caused by steric alterations in the S-1 subsite, position 166 mutants were kinetically analyzed versus P1 substrates of increasing size (i.e., Ala, Met, Phe and Tyr). Ratios of kcat/Km are presented in log form in Figure 15 to allow direct comparisons of transition-state binding energies between various enzyme-substrate pairs.
# (§4) To isolate the contribution of electrostatics to substrate specificity from other chemical binding forces, these various single and double mutants were analyzed for their ability to bind and cleave synthetic substrates containing Glu, Gln, Met and Lys as the P-1 substrate amino acid. This permitted comparisons between side-chains that were more sterically similar but differed in charge (e.g., Glu versus Gln, Lys versus Met). Similarly, mutant enzymes were assayed against homologous P-1 substrates that were most sterically similar but differed in charge (Table XIV).
# (§5) The kcat/Km ratios shown are the second order rate constants for the conversion of substrate to product, and represent the catalytic efficiency of the enzyme. These ratios are presented in logarithmic form to scale the data, and because log kcat/Km is proportional to the lowering of transition-state activation energy (△GT). Mutations at position 156 and 166 produce changes in catalytic efficiency toward Glu, Gln, Met and Lys P-1 substrates of 3100, 60, 200 and 20 fold, respectively.
# [15] = substrate: C[C@H](NC(=O)CCC(=O)O)C(=O)N[C@@H](C)C(=O)N1CCC[C@H]1C(=O)N[C@@H](CCC(=O)O)C(=O)Nc1ccc([N+](=O)[O-])cc1; assay: as above; details: other: Table XIV, 156 Glu / 166 Met; value in parentheses; synthetic substrate with label as P-1 amino acid
# Excerpt: as §2, §3, §4, §5
# [16] = substrate: CSCC[C@H](NC(=O)[C@@H]1CCCN1C(=O)[C@H](C)NC(=O)[C@H](C)NC(=O)CCC(=O)O)C(=O)Nc1ccc([N+](=O)[O-])cc1; assay: as above; details: other: Table XIV, 156 Glu / 166 Met; value in parentheses; synthetic substrate with label as P-1 amino acid
# Excerpt: as §2, §3, §4, §5
# [17] = substrate: C[C@H](NC(=O)CCC(=O)O)C(=O)N[C@@H](C)C(=O)N1CCC[C@H]1C(=O)N[C@@H](CCC(N)=O)C(=O)Nc1ccc([N+](=O)[O-])cc1; assay: as above; details: other: Table XIV, 156 Glu / 166 Met; value in parentheses; synthetic substrate with label as P-1 amino acid
# Excerpt: as §2, §3, §4, §5
# [18] = other: Table VIII, substrate succinyl-L-AlaL-AlaL-ProL-[X]-p-nitroanilide, X = label (P1 amino acid)
# [19] = other: Table XIII, Glu156/Gly166 (WT), synthetic substrate with label as P-1 residue
protein,measurement,setting,value
"B. amyloliquefaciens subtilisin, wild type (WT, Gly166) (Bacillus amyloliquefaciens) (protein, at various amino acid residues within the mature form of the subtilisin molecule; made in house; host or cells: Bacillus subtilis (secreted, culture supernatant)) AQSVPYGVSQIKAPALHSQGYTGSNVKVAVIDSGIDSSHPDLKVAGGASMVPSETNPFQDNNSHGTHVAGTVAALNNSIGVLGVAPSASLYAVKVLGADGSGQYSWIINGIEWAIANNMDVINMSLGGPSGSAALKAAVDKAVASGVVVVAAAGNEGTSGSSSTVGYPGKYPSVIAVGAVDSSNQRASFSSVGPELDVMAPGVSIQSTLPGNKYGAYNGTSMASPHVAGAAALILSKHPNWTNTQVRSSLENTTTKLGDSFYYGKGLINVQAAAQ",Km,[1],73 µM
same,kcat,[1],0.32 s-^1
same,kcat/Km,[1],4400 M⁻¹ s⁻¹
same,Km,[2],741 µM
same,kcat,[3]; [18],1.9 S^-1
same,kcat/Km,[3]; [18],"11,000 s-^1M-1"
same,Km,"[3]; other: Table XI, WT",230 µM
same,kcat,"[3]; other: Table XI, WT",3.2 s-^1
same,kcat/Km,"[3]; other: Table XI, WT",14000 M⁻¹ s⁻¹
same,Km,[4]; [19],0.034 M
same,kcat,[4]; [19],0.54 s-^1
same,kcat/Km,[4]; [19],16 M⁻¹ s⁻¹
same,Km,"[4]; other: Table XIV, 156 Glu / 166 Gly(wt), value in parentheses, synthetic substrate with label as P-1 amino acid",0.0339 M
same,kcat,[5],2.8 S^-1
same,kcat/Km,[5],"4,200 s-^1M-1"
same,Km,[6],140 µM
same,kcat,[6],50.0 s-^1
same,kcat/Km,[6],360000 M⁻¹ s⁻¹
same,Km,[7],107 µM
same,kcat,[7],13 S^-1
same,kcat/Km,[7],"120,000 s-^1M-1"
same,kcat,[8],0.003 S^-1
same,kcat/Km,[8],21 s-^1M-1
same,kcat,[9],7.9 S^-1
same,kcat/Km,[9],"13,000 s-^1M-1"
same,kcat,[10],24 S^-1
same,kcat/Km,[10],"75,000 s-^1M-1"
same,Km,[11],447 µM
same,kcat,[11],3.2 S^-1
same,kcat/Km,[11],"7,100 s-^1M-1"
same,kcat,[12],28 S^-1
same,kcat/Km,[12],"1,100,000 s-^1M-1"
same,Km,[13],180 µM
same,kcat,[13],26.0 s-^1
same,kcat/Km,[13],150000 M⁻¹ s⁻¹
"B. amyloliquefaciens subtilisin variant Glu156/M166 (Gly166 to Met) (Bacillus amyloliquefaciens; G273M) (protein, at various amino acid residues within the mature form of the subtilisin molecule; made in house; host or cells: Bacillus subtilis BG2036) AQSVPYGVSQIKAPALHSQGYTGSNVKVAVIDSGIDSSHPDLKVAGGASMVPSETNPFQDNNSHGTHVAGTVAALNNSIGVLGVAPSASLYAVKVLGADGSGQYSWIINGIEWAIANNMDVINMSLGGPSGSAALKAAVDKAVASGVVVVAAAGNEGTSGSSSTVMYPGKYPSVIAVGAVDSSNQRASFSSVGPELDVMAPGVSIQSTLPGNKYGAYNGTSMASPHVAGAAALILSKHPNWTNTQVRSSLENTTTKLGDSFYYGKGLINVQAAAQ",Km,[14],129 µM
same,Km,[15],5.01 mM
same,Km,[16],14.8 µM
same,Km,[17],646 µM
